Laboratory results from patent US6165732A, “Method for identifying apoptosis modulating compounds” (Washington University, priority 1998, dated 2000).

What was measured:
Bcl-2 channel = biological target: T1, Bcl-2 channel (Mus musculus, UniProt P10417); assay: Effect of Bax death agonist peptide on Bcl-2 channel in planar lipid bilayer; format: biochemical, murine; settings: for effect on conductance pattern of Bcl-2 channel: 20 to 100 μM; for effect on ion selectivity of Bcl-2 channel: peptide added to Bcl-2 channel
T1 construct: proteoliposomes fused to planar lipid bilayer
T1 sequence (P10417 1-218): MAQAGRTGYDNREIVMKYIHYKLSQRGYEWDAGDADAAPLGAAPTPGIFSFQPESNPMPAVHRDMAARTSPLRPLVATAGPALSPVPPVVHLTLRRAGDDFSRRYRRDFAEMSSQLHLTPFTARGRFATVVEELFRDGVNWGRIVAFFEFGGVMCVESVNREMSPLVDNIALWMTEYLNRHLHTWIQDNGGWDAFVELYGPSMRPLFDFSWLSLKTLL
From the text: The Bax and Bcl-2 polypeptides used in the ion channel studies reported herein were recombinant murine Bcl-2 and Bax polypeptides lacking the C-terminal signal-anchor membrane targeting sequence (Bcl-2ΔC21, amino acids 1-218 of SEQ ID NO:9 and BaxΔC19, amino acids 1-173 of SEQ ID NO:6). These deletion derivatives, also referred to herein as BaxΔTM and Bcl-2ΔTM, were used to avoid any interference of the C-terminal signal-anchor membrane targeting sequence with the capacity of internal α helices to mediate insertion into artificial lipid bilayers.
Proteoliposomes for fusion with a planar lipid bilayer were prepared as follows. Purified protein (0.25 μg) was added to […] lipid (Azolectin) in 20 μl of KCl buffer (150 mM KCl, 10 mM HEPES, pH 7.0). This mixture was placed into a dialysis bag with a molecular weight cutoff of 12 KDa. After 16 hours dialysis in 3000 volumes of 150 mM KCl (10 mM HEPES, pH 7.0) the proteoliposome suspension was removed and placed on ice for immediate use. The bilayer was set up with a 450:150 cis to trans KCl gradient to identify the ion selectivity of the initial currents. Fusion was initiated by adding 5-20 μl of lipid vesicles (only 5-20 ng of protein) to the cis bilayer chamber with mixing. Non-fused proteoliposomes were removed from the compartments and solutions exchanged as described above.
Control bilayers containing Bcl-2 or Bax channels were prepared by fusion of unilamellar proteoliposomes with incorporated Bcl-2ΔTM or BaxΔTM with an established planar bilayer as described in Example 4. Test bilayers containing Bcl-2 channels were prepared in the same manner to which an 11 mer Bax peptide (SEQ ID NO:1) with known death agonist activity was added at 20, 50 or 100 μM. A voltage of 80 mV was applied to each control and test channel and its conductance measured for a period of 12 to 16 seconds and the frequency that each channel was measured at a particular conductance level (pA) was calculated. The data, representing about 500,000 measurements, are shown as histograms in FIGS. 8A-8E.
Bilayers containing Bcl-2 and Bax channels were prepared as described in Example 4 with 150 mM KCl on both sides of the bilayer. The death agonist peptide was added to the cis side of a Bcl-2 channel at 150 μM. The voltage dependence of the currents and the ion selectivity for the Bcl-2 channel in the absence and presence of the death agonist peptide, as well as the Bax channel were determined and the data are shown in FIGS. 9A-C.

cell death = settings: known activity; cited from earlier work
[1] = Channel forming activity of peptide in planar lipid bilayers which lack BCL-2 related proteins; format: biochemical; settings: bilayers lacking BCL-2 related proteins
Bax channel = assay: Effect of Bax 11-mer peptide on Bax channel in planar lipid bilayer; format: biochemical, murine; settings: 20 to 100 μM

## ECLKRIGDELD [Bax 11mer peptide]
Bcl-2 channel; 100 μM peptide, 80 mV
  single remaining conductance peak of Bcl-2 channel: about 65 pA
Bcl-2 channel; 150 μM peptide, cis side
  pK/pCl of Bcl-2 channel with peptide: 0.26±0.05
Bcl-2 channel; 150 μM peptide, symmetrical 150 mM KCl
  slope of Bcl-2 channel current at negative potentials: linear and intermediate between that of Bcl-2 and Bax alone
Bcl-2 channel; 150 μM peptide, symmetrical 150 mM KCl, listed as death agonist peptide
  effect on rectification of Bcl-2 channel: imparted rectification
Bcl-2 channel
  effect on conductance pattern of Bcl-2 channel: a simpler single channel conductance pattern
  effect on ion selectivity of Bcl-2 channel: Cl^- selectivity
Bcl-2 channel; listed as 11 mer Bax peptide
  effect on conductance pattern of Bcl-2 channel: changes its characteristic conductance pattern in a progressive manner
Bcl-2 channel; listed as death agonist peptide
  effect on ion selectivity of Bcl-2 channel: reversed the ion selectivity of the Bcl-2 channel
Cell death
  cell death induction (known): known to induce cell death
[1]
  channel forming activity: no channel forming activity
Bax channel
  effect on activity of Bax channels: not affected
